According to patent US20240092930A1 (MABWELL SHANGHAI BIOSCIENCE, published 2024):

T1: recombinant cynomolgus Trop-2-his protein (ACCESSION NO.: UniProtKB-A0A2K5UE71, AA 1-272) (cynomolgus, UniProt A0A2K5UE71 1-272)
T1 construct: The printed range begins at residue 1; not shown: his tag
T1 sequence: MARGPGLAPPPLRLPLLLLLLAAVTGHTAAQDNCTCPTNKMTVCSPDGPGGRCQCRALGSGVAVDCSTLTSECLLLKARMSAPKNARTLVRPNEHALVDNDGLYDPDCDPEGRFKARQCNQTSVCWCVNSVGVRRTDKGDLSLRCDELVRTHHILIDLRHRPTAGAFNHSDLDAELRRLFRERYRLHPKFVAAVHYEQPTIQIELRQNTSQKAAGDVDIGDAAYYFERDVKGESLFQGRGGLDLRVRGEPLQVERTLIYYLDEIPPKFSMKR

T2: recombinant human Trop-2-his protein (ACCESSION NO.: NP_002344.2, AA 1-274) (human, UniProt P09758 27-274)
T2 construct: range 27-274; also called recombinant human Trop-2 protein; recombinant human Trop-2 extracellular domain; not shown: his tag
T2 sequence (looked up): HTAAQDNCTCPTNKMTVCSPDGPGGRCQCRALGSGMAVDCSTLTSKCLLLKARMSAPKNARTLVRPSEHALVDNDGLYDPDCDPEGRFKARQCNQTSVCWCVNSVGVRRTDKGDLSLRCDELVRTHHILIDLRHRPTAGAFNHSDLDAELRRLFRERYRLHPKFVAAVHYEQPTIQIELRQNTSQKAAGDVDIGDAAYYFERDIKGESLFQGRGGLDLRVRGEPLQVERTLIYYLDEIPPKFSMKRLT

T3: human Trop-2 on the surface of cells (CHO/Trop-2 cells; BxPC-3 cells; NCI-N87 cells) (human, UniProt P09758 27-323)
T3 sequence (looked up): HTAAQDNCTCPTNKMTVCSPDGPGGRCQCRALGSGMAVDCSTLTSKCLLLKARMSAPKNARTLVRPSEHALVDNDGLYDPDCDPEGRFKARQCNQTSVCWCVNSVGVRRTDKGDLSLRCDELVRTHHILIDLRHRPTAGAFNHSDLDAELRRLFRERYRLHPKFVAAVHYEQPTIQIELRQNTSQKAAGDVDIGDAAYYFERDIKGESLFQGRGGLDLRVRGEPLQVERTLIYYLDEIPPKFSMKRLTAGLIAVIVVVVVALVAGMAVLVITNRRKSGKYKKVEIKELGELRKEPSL


How the values were obtained:
[1] = molecular target: T1, recombinant cynomolgus Trop-2-his …; assay: ELISA, coated cynomolgus Trop-2-his 1 µg/ml
Method: (§1) Washed with PBS 3 times, the plates were blocked with the added 5% BSA PBS at 37° C. for 60 min, and then washed 3 times with PBST. Different concentrations of h23-12 (serial dilutions of 14 concentrations obtained through 3-fold serially diluting a solution with an initial concentration of 10 μg/ml), h4-3 (serial dilutions of 12 concentrations obtained through 3-fold serially diluting a solution with an initial concentration of 3 μg/ml), and Sacituzumab (serial dilutions of 12 concentrations obtained through 3-fold serially diluting a solution with an initial concentration of 3 μg/ml) were added into the plates, with each concentration provided in a parallel well. The plates were incubated at 37° C. for 60 min, and then were washed 4 times with PBST. 1:5000 dilution of H1RP-anti-human Fc (Cat.: 109-035-098, Jackson ImmunoResearch) was added into the plates for incubation at 37° C. for 30 min. Afterwards, the plates were washed with PBST 4 times, and TMB substrate was added for color development at 37° C. for 10 min. Then 2M HCl was added to stop reaction; and absorbances at 450 nm and at 630 nm (as reference wavelength) were read, and A450 nm-630 nm values of the wells in the plates were recorded.

[2] = molecular target: T2, recombinant human Trop-2-his protein …; assay: BLI, antibody on AHC sensor, Trop-2-his 60 nM
In short: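 Octet BLI: humanized antibodies at 4 μg/ml in PBS captured 120 s on anti-human IgG Fc (AHC) biosensors, then exposed to 60 nM Trop-2-his (AA 1-274) for 100 s association and 300 s dissociation. Blank-subtracted data fitted to 1:1 Langmuir model for kinetic constants.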

[3] = molecular target: T2, recombinant human Trop-2-his protein …; assay: BLI, naked antibody on AHC sensor, Trop-2-his 60 nM, 300 s binding
Method: Affinities of the antibodies were determined by an assay including capturing Fc fragments of the antibodies with anti-human IgG Fc capture (AHC) biosensors using Octet QKe system instrument from Fortebio.
For the assay, SN38-labeled antibodies prepared as described above: h23-12-SN38, ch4-3-SN38, ch11-4-SN38, and positive control antibody Sacituzumab-SN38, as well as naked antibodies h23-12, ch4-3, ch11-4, and positive control antibody Sacituzumab were diluted to 4 μg/ml with PBS and allowed to flow through the surface of an AHC biosensor (Cat.: 18-0015, PALL) for 120 s. Recombinant human Trop-2-his protein (ACCESSION NO.: NP_002344.2, AA 1-274) was used as a mobile phase, and its concentration was 60 nM. The binding time was 300 s and the dissociation time was 300 s. When the assay was finished, data from which the response value of blank control had been deducted were fitted to a 1:1 Langmuir binding model using software, and then kinetic constants for antigen-antibody binding were calculated.

[4] = molecular target: T3, human Trop-2 on the surface of cells …; assay: cell-based or functional assay
[5] = molecular target: T3, human Trop-2 on the surface of cells …; assay: cell-based or functional assay; remark: listed apart in the source
[6] = molecular target: T2, recombinant human Trop-2-his protein …; assay: ELISA, coated human Trop-2-his 1 µg/ml
Method: as §1

Binder	EC50 [1] [nM]	Kd [2] [nM]	Kd [3] [nM]	Internalization percentage, 1 h, BXPC-3 cells, FACS [4] [%]	Internalization percentage, 1 h, NCI-N87 cells, FACS [5] [%]	EC50 [6] [nM]
Sacituzumab (antibody, human IgG1, kappa, V domains shown, expressed in HEK293; also called control antibody Sacituzumab; Saituzumab) VH: QVQLQQSGSELKKPGASVKVSCKASGYTFTNYGMNWVKQAPGQGLKWMGWINTYTGEPTYTDDFKGRFAFSLDTSVSTAYLQISSLKADDTAVYFCARGGFGSSYWYFDVWGQGSLVTVSS VL: DIQLTQSPSSLSASVGDRVSITCKASQDVSIAVAWYQQKPGKAPKLLIYSASYRYTGVPDRFSGSGSGTDFTLTISSLQPEDFAVYYCQQHYITPLTFGAGTKVEIKR	0.0726	0.723	0.583	37.4	49.3	0.0703
h23-12-25 (antibody, human IgG1, kappa, V domains shown, also called h32-12) VH: QVQLVQSGAEVKKPGASVKVSCKASGYTFTSYWMHWVRQAPGQGLEWMGEITPSDNYGSYNQKFKGRVTITRDTSTSTAYMELSSLRSEDTAVYYCARGHGNYVSFDYWGQGTLVTVSS VL: DIQMTQSPSSLSASVGDRVTITCRASQDISNYLNWYQQKPGKAPKLLIYYTSRLESGVPSRFSGSGSGTDFTLTISSLQPEDFATYFCQQGYTLPPYTFGQGTKLEIKR	0.124	0.502	0.507	32.4	54	0.0473
